Laboratory results from PMC4215116.

Assay: Ni-NTA pull-down of conditioned medium, anti-myc blot
Details: glycan lost; control: wild-type ECM1-MH

B1: extracellular matrix protein 1 (ECM1): N444Q (protein)
parent chain: MGTTARAALVLTYLAVASAASEGGFTATGQRQLRPEHFQEVGYAAPPSPPLSRSLPMDHPDSSQHGPPFEGQSQVQPPPSQEATPLQQEKLLPAQLPAEKEVGPPLPQEAVPLQKELPSLQHPNEQKEGTPAPFGDQSHPEPESWNAAQHCQQDRSQGGWGHRLDGFPPGRPSPDNLNQICLPNRQHVVYGPWNLPQSSYSHLTRQGETLNFLEIGYSRCCHCRSHTNRLECAKLVWEEAMSRFCEAEFSVKTRPHWCCTRQGEARFSCFQEEAPQPHYQLRACPSHQPDISSGLELPFPPGVPTLDNIKNICHLRRFRSVPRNLPATDPLQRELLALIQLEREFQRCCRQGNNHTCTWKAWEDTLDKYCDREYAVKTHHHLCCRHPPSPTRDECFARRAPYPNYDRDILTIDIGRVTPNLMGHLCGNQRVLTKHKHIPGLIHNMTARCCDLPFPEQACCAEEEKLTFINDLCGPRRNIWRDPALCCYLSPGDEQVNCFNINYLRNVALVSGDTENAKGQGEQGSTGGTNISSTSEPKEE
expression_or_secretion: no change
